{"source": "paper doi:10.1101/2022.02.08.479534", "about": "“FoxP3 can fold into two distinct dimerization states with divergent functional implications for T cell homeostasis”", "binders": {"B1": {"name": "IR-FKHM4g (31bp) (dsDNA)", "DNA 1": "TTAGGAAAATTTGTTTACTCGAGTAAACAAA", "DNA 2": "TTTGTTTACTCGAGTAAACAAATTTTCCTAA"}}, "key": {"[1]": {"biological_target": "T1, NusA-FoxP3RBR-forkhead A372S (Mus musculus, UniProt Q99JB6 284-423, A372S)", "T1 sequence": "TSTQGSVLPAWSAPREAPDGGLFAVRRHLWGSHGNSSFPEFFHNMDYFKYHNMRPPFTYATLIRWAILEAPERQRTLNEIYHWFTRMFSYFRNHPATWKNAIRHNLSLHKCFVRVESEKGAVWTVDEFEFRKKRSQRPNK", "test": "EMSA; EMSA: 0.2 uM DNA, 20 mM Tris pH 7.5, 150 mM NaCl, 1.5 mM MgCl2, 2 mM DTT, 30 min at 4 C; anti-HA bead DNA pull-down: 20 min at room temperature; the EMSA IR-FKHM4g length is taken as 31 bp", "details": "protein: recombinant; tags: His6-NusA; blunt"}, "FoxP3ΔN'": {"biological_target": "T2, FoxP3ΔN' (Mus musculus, UniProt Q99JB6 204-417, C217S;C231S;del277-304)", "T2 sequence": "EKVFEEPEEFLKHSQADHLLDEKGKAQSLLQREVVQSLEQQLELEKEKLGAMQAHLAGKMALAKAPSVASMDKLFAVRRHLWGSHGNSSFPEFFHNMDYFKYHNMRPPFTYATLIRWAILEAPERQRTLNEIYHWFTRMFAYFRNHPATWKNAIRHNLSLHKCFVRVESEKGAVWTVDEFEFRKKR", "test": "EMSA; EMSA: 0.2 uM DNA, 20 mM Tris pH 7.5, 150 mM NaCl, 1.5 mM MgCl2, 2 mM DTT, 30 min at 4 C; anti-HA bead DNA pull-down: 20 min at room temperature; the EMSA IR-FKHM4g length is taken as 31 bp", "details": "protein: recombinant; tags: His6-NusA cleaved; chain copies: 2; blunt"}, "FoxP3RBR-forkhead": {"biological_target": "T3, FoxP3RBR-forkhead (Mus musculus, UniProt Q99JB6 284-423)", "T3 sequence": "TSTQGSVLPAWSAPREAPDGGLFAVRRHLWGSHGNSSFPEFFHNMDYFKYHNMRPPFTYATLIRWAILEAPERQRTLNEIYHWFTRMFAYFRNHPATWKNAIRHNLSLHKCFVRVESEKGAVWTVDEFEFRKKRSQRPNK", "test": "EMSA; EMSA: 0.2 uM DNA, 20 mM Tris pH 7.5, 150 mM NaCl, 1.5 mM MgCl2, 2 mM DTT, 30 min at 4 C; anti-HA bead DNA pull-down: 20 min at room temperature; the EMSA IR-FKHM4g length is taken as 31 bp", "details": "protein: recombinant; tags: His6-NusA cleaved (HRV3C); blunt"}, "FoxP3ΔN''": {"biological_target": "T4, FoxP3ΔN'' (Mus musculus, UniProt Q99JB6 204-417, C217S;C231S;del277-314)", "T4 sequence": "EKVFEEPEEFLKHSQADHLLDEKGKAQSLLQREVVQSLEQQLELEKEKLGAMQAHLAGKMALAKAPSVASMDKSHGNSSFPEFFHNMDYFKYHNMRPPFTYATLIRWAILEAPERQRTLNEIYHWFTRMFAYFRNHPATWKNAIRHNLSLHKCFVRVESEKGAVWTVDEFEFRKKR", "test": "EMSA; EMSA: 0.2 uM DNA, 20 mM Tris pH 7.5, 150 mM NaCl, 1.5 mM MgCl2, 2 mM DTT, 30 min at 4 C; anti-HA bead DNA pull-down: 20 min at room temperature; the EMSA IR-FKHM4g length is taken as 31 bp", "details": "protein: recombinant; tags: His6-NusA cleaved; chain copies: 2; blunt"}, "[2]": {"biological_target": "T5, NusA-FoxP3RBR-forkhead A372G (Mus musculus, UniProt Q99JB6 284-423, A372G)", "T5 sequence": "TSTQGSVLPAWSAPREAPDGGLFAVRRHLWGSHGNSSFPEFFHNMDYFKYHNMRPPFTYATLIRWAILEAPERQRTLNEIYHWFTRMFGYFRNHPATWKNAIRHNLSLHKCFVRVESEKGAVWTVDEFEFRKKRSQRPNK", "test": "EMSA; EMSA: 0.2 uM DNA, 20 mM Tris pH 7.5, 150 mM NaCl, 1.5 mM MgCl2, 2 mM DTT, 30 min at 4 C; anti-HA bead DNA pull-down: 20 min at room temperature; the EMSA IR-FKHM4g length is taken as 31 bp", "details": "protein: recombinant; tags: His6-NusA; blunt"}, "FoxP3ΔN": {"biological_target": "T6, FoxP3ΔN (Mus musculus, UniProt Q99JB6 188-423)", "T6 sequence": "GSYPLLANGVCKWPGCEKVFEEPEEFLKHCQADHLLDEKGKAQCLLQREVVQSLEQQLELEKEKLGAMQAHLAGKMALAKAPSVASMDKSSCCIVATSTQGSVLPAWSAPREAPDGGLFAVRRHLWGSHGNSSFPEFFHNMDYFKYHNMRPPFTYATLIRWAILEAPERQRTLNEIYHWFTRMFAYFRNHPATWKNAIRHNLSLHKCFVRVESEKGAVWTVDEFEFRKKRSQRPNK", "test": "EMSA; EMSA: 0.2 uM DNA, 20 mM Tris pH 7.5, 150 mM NaCl, 1.5 mM MgCl2, 2 mM DTT, 30 min at 4 C; anti-HA bead DNA pull-down: 20 min at room temperature; the EMSA IR-FKHM4g length is taken as 31 bp", "details": "protein: recombinant; tags: His6-NusA cleaved (HRV3C); chain copies: 2; blunt"}, "NusA-FoxP3RBR-forkhead": {"biological_target": "T7, NusA-FoxP3RBR-forkhead (Mus musculus, UniProt Q99JB6 284-423)", "T7 sequence": "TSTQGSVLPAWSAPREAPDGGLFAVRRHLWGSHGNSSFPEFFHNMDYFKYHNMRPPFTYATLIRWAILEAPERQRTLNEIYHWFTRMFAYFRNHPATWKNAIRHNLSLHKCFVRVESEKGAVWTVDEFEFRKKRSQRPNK", "test": "EMSA; EMSA: 0.2 uM DNA, 20 mM Tris pH 7.5, 150 mM NaCl, 1.5 mM MgCl2, 2 mM DTT, 30 min at 4 C; anti-HA bead DNA pull-down: 20 min at room temperature; the EMSA IR-FKHM4g length is taken as 31 bp", "details": "protein: recombinant; tags: His6-NusA; blunt"}, "FoxP3ZF-CC": {"biological_target": "T8, FoxP3ZF-CC (Mus musculus, UniProt Q99JB6 188-284)", "T8 sequence": "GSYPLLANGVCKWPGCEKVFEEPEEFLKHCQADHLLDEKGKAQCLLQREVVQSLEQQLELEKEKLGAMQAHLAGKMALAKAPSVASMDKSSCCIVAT", "test": "EMSA; up to 4 uM; barely detectable; EMSA: 0.2 uM DNA, 20 mM Tris pH 7.5, 150 mM NaCl, 1.5 mM MgCl2, 2 mM DTT, 30 min at 4 C; anti-HA bead DNA pull-down: 20 min at room temperature; the EMSA IR-FKHM4g length is taken as 31 bp", "details": "protein: recombinant; blunt"}}, "data": [{"binder": "B1", "values": [{"measurement": "binding result", "setting": "[1]", "result": "binds"}, {"measurement": "binding result", "setting": "FoxP3ΔN'", "result": "binds"}, {"measurement": "binding result", "setting": "FoxP3RBR-forkhead", "result": "binds"}, {"measurement": "binding result", "setting": "FoxP3ΔN''", "result": "binds"}, {"measurement": "binding result", "setting": "[2]", "result": "binds"}, {"measurement": "binding result", "setting": "FoxP3ΔN", "result": "binds"}, {"measurement": "binding result", "setting": "NusA-FoxP3RBR-forkhead", "result": "binds"}, {"measurement": "binding result", "setting": "FoxP3ZF-CC", "result": "no binding"}]}]}
